Measurements as given in patent US20030059862A1 (Human Genome Sciences, published 2003).
Where a chain is given by its changes, count along the chain named. One block for each binder: values may come before it.

What was measured:
biotinylated APRIL [1] = target: T1, biotinylated APRIL (Homo sapiens (Human), UniProt O75888 105-250, biotinylated using NHS-biotin at a molar ratio of 20:1 biotin:APRIL); assay: scFv inhibition of bio-APRIL (5 ng/ml) binding to coated BCMA fusion protein, streptavidin-DELFIA
T1 construct: also called bio-APRIL
T1 sequence: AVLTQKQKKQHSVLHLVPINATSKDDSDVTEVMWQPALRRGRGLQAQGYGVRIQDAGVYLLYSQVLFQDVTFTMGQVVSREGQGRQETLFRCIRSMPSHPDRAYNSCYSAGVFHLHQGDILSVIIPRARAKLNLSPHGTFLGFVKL
Protocol: (§1) APRIL binds to BCMA with higher affinity than its binds to TACI so, inhibition of biotinylated APRIL (bio-APRIL) binding to BCMA can be used to screen selection outputs as periplasmic extracts for neutralizers and then assess potency of the positives as purified scFvs. To perform this assay, each well of a black 96 well flat-bottomed plate (Costar) was coated with 1.25 ng BCMA fusion protein overnight at 4° C. The wells were blocked with 3% milk in PBS for an hour at room temperature. ScFv were then added in the presence of 5 ng/ml biotinylated APRIL for 90 minutes at room temperature. Binding of biotinylated APRIL was detected via streptavidin Delfia (Wallac) added at a 1:1000 dilution in Delfia assay buffer (Wallac). After an hour at room temperature this was read on a Wallac 1420 workstation at 620 nm.

biotinylated APRIL [2] = target: T1, biotinylated APRIL; assay: scFv inhibition of bio-APRIL (50 ng/ml) binding to coated TACI fusion protein, streptavidin-DELFIA; partial inhibition
Protocol: as §1
(§2) An assay similar to that described above can also be used to test if anti-APRIL antibodies of the invention are able to inhibit binding of bio-APRIL to TACI. In this case, the plate was coated with 2.5 ng TACI fusion protein per well and scFv were added in the presence of 50 ng/ml biotinylated APRIL instead of 5 ng/ml. Otherwise, the method was identical to that for the BCMA:bio-APRIL assay.

biotinylated APRIL [3] = target: T1, biotinylated APRIL; assay: scFv inhibition of bio-APRIL (5 ng/ml) binding to coated BCMA fusion protein, streptavidin-DELFIA; partial inhibition
Protocol: as §1

biotinylated APRIL [4] = target: T1, biotinylated APRIL; assay: scFv inhibition of bio-APRIL (50 ng/ml) binding to coated TACI fusion protein, streptavidin-DELFIA
Protocol: as §1, §2

BCMA = target: T2, BCMA (Homo sapiens (Human), UniProt Q02223 1-48, limits assumed); assay: Specificity phage ELISA (scFv on phage, anti-M13-HRP, A450)
T2 chain: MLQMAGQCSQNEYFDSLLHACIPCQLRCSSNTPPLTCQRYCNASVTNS
Protocol: (§3) Flexible 96-well plates (Falcon) were coated overnight at 4° C. with each antigen (1 μg/ml). All antigens were coated in PBS. After coating, the solutions were removed from the wells, and the plates were blocked for 1 hour at room temperature in MPBS. The plates were washed 3 times with PBS and then 50 μl of pre-blocked phage was added to each well. The plates were incubated at room temperature for 1 hour and then washed with 3 changes of PBST followed by 3 changes of PBS.
(§4) To each well, 50 μl of an anti-M13-HRP conjugate (Pharmacia) at a 1 in 5000 dilution in MPBS was added and the plates incubated at room temperature for 1 hour. Each plate was washed three times with PBST followed by three times with PBS.
(§5) Fifty μl of TMB substrate was then added to each well, and incubated at room temperature for 30 minutes or until color development. The reaction was stopped by the addition of 25 μl of 0.5 M H₂SO₄. The signal generated was measured by reading the absorbance at 450 nm (A₄₅₀) using a microtitre plate reader (Bio-Rad 3550).

TACI = target: T3, TACI (Homo sapiens (Human), UniProt O14836 1-154, limits assumed); assay: as above
T3 sequence: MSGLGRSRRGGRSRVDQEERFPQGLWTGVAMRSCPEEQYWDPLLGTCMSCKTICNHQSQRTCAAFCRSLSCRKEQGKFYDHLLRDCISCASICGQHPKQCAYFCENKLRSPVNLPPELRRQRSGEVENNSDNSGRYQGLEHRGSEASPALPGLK
Protocol: as §3, §4, §5

BLyS = target: T4, BLyS (Homo sapiens (Human), UniProt Q9Y275 134-285); assay: as above
T4 construct: also called Neutrokine-alpha
Protocol: as §3, §4, §5

LIGHT = target: T5, LIGHT (Homo sapiens (Human), UniProt O43557 83-240, limits assumed); assay: as above
T5 chain: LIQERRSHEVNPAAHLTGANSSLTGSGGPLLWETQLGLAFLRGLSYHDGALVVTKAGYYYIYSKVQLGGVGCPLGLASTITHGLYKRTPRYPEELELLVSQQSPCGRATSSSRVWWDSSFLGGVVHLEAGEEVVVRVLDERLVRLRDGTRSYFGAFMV
Protocol: as §3, §4, §5

TNF-α = target: T6, TNF-α (Homo sapiens (Human), UniProt P01375 77-233); assay: as above
T6 construct: also called TNF-alpha
T6 sequence (P01375 77-233 limits assumed): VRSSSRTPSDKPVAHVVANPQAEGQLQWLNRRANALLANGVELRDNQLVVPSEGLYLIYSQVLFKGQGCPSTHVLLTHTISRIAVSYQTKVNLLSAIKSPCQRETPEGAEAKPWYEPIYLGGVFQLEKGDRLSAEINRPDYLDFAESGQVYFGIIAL
Protocol: as §3, §4, §5

BSA = target: T7, BSA (UniProt P02769 25-607); assay: as above
T7 construct: Unrelated control antigen coated at 1 µg/ml in the phage ELISAs
T7 sequence (P02769 25-607 limits assumed): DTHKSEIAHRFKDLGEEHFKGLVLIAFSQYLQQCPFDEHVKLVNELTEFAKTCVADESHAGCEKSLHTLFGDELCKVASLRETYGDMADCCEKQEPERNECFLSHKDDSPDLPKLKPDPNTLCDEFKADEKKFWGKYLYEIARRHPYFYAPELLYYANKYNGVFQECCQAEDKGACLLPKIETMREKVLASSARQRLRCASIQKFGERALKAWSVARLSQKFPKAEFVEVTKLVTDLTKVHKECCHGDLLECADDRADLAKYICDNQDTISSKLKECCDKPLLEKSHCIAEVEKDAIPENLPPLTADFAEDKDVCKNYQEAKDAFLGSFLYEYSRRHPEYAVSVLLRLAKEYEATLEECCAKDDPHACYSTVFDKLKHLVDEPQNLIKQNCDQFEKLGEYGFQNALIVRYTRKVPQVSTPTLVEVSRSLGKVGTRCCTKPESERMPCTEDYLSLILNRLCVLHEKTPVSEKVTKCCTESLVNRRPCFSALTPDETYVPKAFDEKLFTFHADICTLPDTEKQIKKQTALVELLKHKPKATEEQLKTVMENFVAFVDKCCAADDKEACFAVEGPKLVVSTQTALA
Protocol: as §3, §4, §5

biotinylated APRIL [5] = target: T1, biotinylated APRIL; assay: receptor binding inhibition assay: scFv titrated with bio-APRIL (5 ng/ml); blocked binding of bio-APRIL to plate-coated BCMA fusion protein; streptavidin Delfia, fluorescence counts
Protocol: as §1

- IC50 (biotinylated APRIL [1]): 2.7 nM
- IC50 (biotinylated APRIL [2]): 5.6 nM
B1: A027A11 (scFv)
scFv: QVQLQQSGAEVKKPGSSVKVSCKASGGTFSTYAITWVRQAPGQGLEWMGDIIPVFGIPNYAQMFQDRVTITADESTSTAYLELNSLGAEDTAVYYCARGSQAFEIWGKGTTVTVSSGGGGSGGGGSGGGGSQSVLTQPASVSGSPGQSITISCTGTSSDVGGYNYVSWYQQHPGKAPKLMIYEGSKRPSGVSNRFSGSKSGNTASLTISGLQAEDEADYYCSSYTTRSTRVFGGGTKLTVLG

- IC50 (biotinylated APRIL [3]): 3.1 nM
- IC50 (biotinylated APRIL [2]): 94 nM
B2: A027B01 (scFv)
scFv: QVQLLQSAAEVKKPGSSVKVSCKTSGGTFRNHAISWVRQAPGQGLEWMGGIIPIFGTANYAQKFQGRVTITADESTSTAYMELSSLRSEDTAVYYCARGISAGMDVWGRGTLVTVSSGGGGSGGGGSGGGGSDIQMTQSPSFLSASIGDRVTITCRASEGIYHWLAWYQQKPGKAPKLLIYKASSLASGAPSRFSGSGSGTDFTLTISSLQPDDFATYYCQQYSNYPLTFGGGTKLEIKR

- IC50 (biotinylated APRIL [1]): 25 nM
- IC50 (biotinylated APRIL [2]): 139 nM
B3: A053H04 (scFv)
scFv: EVQLVQSGAEVKKPGSSVKVSCKASGGTFSNYAISWVRQAPGQGLEWMGGIIPLFDTPNYAQKFQGRVTITADESTSTAYMELSSLRSEDTAVYYCARGNTGPRPFDPWGKGTTVTVSSGGGGSGGGGSGGGGSAQAVLTQPSSVSGAPGQRVTVSCTGSSSNIGAGYEVNWYQQLPGTAPKLLIYGDTNRPSGVPDRFSGSKSGTSASLAITGLQAEDEANYYCQSYDSGPGGPVVFGGGTKLTVLG

- IC50 (biotinylated APRIL [1]): 55 nM
- IC50 (biotinylated APRIL [2]): 150 nM
B4: A030D09 (scFv)
scFv: QVQLQQSGAEVKKPGSSVKVSCKTSGGAFSHYAIHWVRLAPGQGLEWMGDIIPVYGSTTYAQKFQDRVTISADESTSTAYMELSSLRSEDTAVYYCARSWYYDILTGYWDYYYMDVWGKGTLVTVSSGGGGSGGGGSGGGGSSELTQDPAVSVALGQTVRITCQGDSLRSYYASWYQQKPGQAPVLVIYGKNNRPSGIPDRFSGSSSGNTASLTITGAQAEDEADYYCNSRDSSGNHVVFGGGTKLTVLG

- IC50 (biotinylated APRIL [1]): 7.7 nM
- IC50 (biotinylated APRIL [4]): 10 nM
B5: A013B07 (scFv)
scFv: EVQLVQSGAEVKKPGASVKVSCKTSGYTFTDNYMHWVRQAPGQGLEWMGWISPNSSTTLYAQKFRGRVTLTRDTSVSTAYMELSGLDSDDTALYFCARGGRLAGSTVFTPAFEYWGQGTMVTVSSGGGGSGGGGSGGGGSAQSVLTQPPSVSEAPRQRVTISCSGSSSNIGANAVNWYQQLPGKAPKLLIYFDDLLPSGVSDRFSGSKSGTSASLAISGLQSEDEADYYCAAWDDSLNGVVFGGGTKLTVLG

- IC50 (biotinylated APRIL [1]): 12 nM
- IC50 (biotinylated APRIL [4]): 3.5 nM
B6: A020F03 (scFv)
scFv: B5 scFv with Q117R, S143A, P149S, A172N, N176K, F192Y, V240Y, G244T, L248V

- IC50 (biotinylated APRIL [1]): 10 nM
- IC50 (biotinylated APRIL [2]): 13 nM
B7: A034H05 (scFv)
scFv: EVQLVQSGAEVKKPGSSVKVSCKVSGGSFPNYAINWVRQAPGQGLEWMGSLVPVFLTPNYAERFQDRVTITADESTSTAYMELRSLRSDDTAVFYCARSGGDGYRDYGMDLWGRGTLVTVSSGGGGSGGGGSGGGGSAQSVLTQPPSASGTPGQRVTISCSGSSSNIGRNTVNWFQQLPGTAPKLLIYSSNQRPSGVPDRFAGSKSGTSASLAISGLQSEDEADYYCAAWDDSLNGLVFGGGTKLTVLG

- IC50 (biotinylated APRIL [1]): 19 nM
- IC50 (biotinylated APRIL [4]): 800 nM
B8: A004G02 (scFv)
scFv: QVQLVQSGAEVKKPGSSVKVSCKASGGTFSSYGIRWVRQAPGQGLEWMGGIIPIFGTANYAQKFQGRVTITADEYTSTAYMELSSLRSEDTAVYYCARSNPQYDAFDIWGQGTTVTVSSGGGGSGGGGSGGGGSSYVLTQPPSVSGTPGQRVTVSCSGGRSNIGSNTVKWYQQLPGTAPKLLIYGNDQRPSGVPDRFSGSKSGNTASLTVSGLQVEDEADYYCQSYDSSLRGSVFGGGTKLTVLG
- binding result (BCMA): no binding (tested: antigen coated at 1 µg/ml)
- binding result (TACI): no binding (tested: antigen coated at 1 µg/ml)
- binding result (BLyS): no binding (tested: antigen coated at 1 µg/ml)
- binding result (LIGHT): no binding (tested: antigen coated at 1 µg/ml)
- binding result (TNF-α): no binding (tested: antigen coated at 1 µg/ml)
- binding result (BSA): no binding (tested: antigen coated at 1 µg/ml)

- IC50 (biotinylated APRIL [1]): 6 nM
- IC50 (biotinylated APRIL [2]): 36 nM
B9: A034G03 (scFv)
scFv: QVQLQQSGAEVKKPGSSVKVSCKASGGTFSNYAISWVRQAPGQGLEWMGGIIPLFDTPNYAQKFQGRVTITADESTSTAYMELSSLRSEDTAVYYCARGNTGPRPFDPWGQGTLVTVSSGGGGSGGGGSGGGGSAQAVLTQPSSVSGAPGQRVTISCSATSPNIGAGDEIHWYQVSPGKAPKLLIYGDIKRPSGVSDRFSGSKSGTTASLAITGLRPEDEADYYCQSYDRTLSGSVVFGGGTKVTVLG

- IC50 (biotinylated APRIL [3]): 2.3 nM
- IC50 (biotinylated APRIL [2]): 12 nM
- IC50 (biotinylated APRIL [5]): 3 nM
B10: A010D09 (scFv)
scFv: QVQLVQSGAEVKKLGSSVKVSCKASGGTFSSYAISWVRQAPGQGLEWMGGIIPIFGTANYAQKFQGRVTITADESTSTAYMELSSLRSEDTAVYYCARDLSRLGMDVWGQGTTVTVSSGGGGSGGGGSGGGGSDIQMTQSPSTLSASIGDRVTITCRASEGIYHWLAWYQQKPGKAPKLLIYKASSLASGAPSRFSGSGSGTDFTLTISSLQPDDFATYYCQQYSNYPLTFGGGTKLEIKR
